# According to PMC9892032:
# Several values for one entry are separate records, joined by “and”; a condition that tells them apart may be missing. Equal entries are not always repeated.
# Target: Lake Sinai virus 2 capsid protein, full-length (residues 1–520) (Lake Sinai virus 2)
# Assay: cryo-EM structure; purified LSV2 VLPs (30 mg/mL) assembled in vitro in 50 mM HEPES, 300 mM NaCl at pH 6.5, 7.5 or 8.5; T = 4 and T = 3 particles from single datasets, icosahedral and focused refinement
substance,measurement,value
"Lake Sinai virus 2 capsid protein, full-length (residues 1–520) (natural protein)",stoichiometry N,240 copies and 180 copies
